T1: human CD20 (membrane spanning 4-domains A1, MS4A1) on cells (human, UniProt P11836 1-297)
T1 construct: whole, on cells; Target cells used: Raji, K562-CD20, CHO-CD20, Daudi, RPMI-8226 (very low CD20); also called CD20 receptor; CD20 antigen
T1 sequence (looked up): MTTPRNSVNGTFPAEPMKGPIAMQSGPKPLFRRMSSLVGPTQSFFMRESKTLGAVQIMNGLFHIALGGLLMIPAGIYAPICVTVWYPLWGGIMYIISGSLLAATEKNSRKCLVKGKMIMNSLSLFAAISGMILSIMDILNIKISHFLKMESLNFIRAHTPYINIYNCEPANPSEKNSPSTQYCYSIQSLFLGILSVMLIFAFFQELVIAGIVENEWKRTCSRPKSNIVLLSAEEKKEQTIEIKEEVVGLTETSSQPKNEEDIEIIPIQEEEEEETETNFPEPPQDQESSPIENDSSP


Experiments:
[1] = target: T1, human CD20 (membrane spanning 4-domains …); experiment: flow cytometry, mAb titrated on Raji cells, PE anti-human IgG1 Fc detection
Text: (§1) Each of three exemplary of anti-CD20 VHH sequences (clone ID: VHH-273, VHH-466 and VHH-496) with human IgG1 Fc fragment sequence (SEQ ID NO: 159) were cloned into a mammalian expression vector—pcDNA3.4, to facilitate the recombinant protein expression. The DNA codons were further optimized for optimal expression in mammalian host cell—Expi293F. The antibodies were harvested from the supernatant of cell culture, one-step purified by MabSelect SuRe LX and sterilized via a 0.2 μm filter. The purified antibody concentrations were determined by A280 and reached 2-6 mg/mL with ˜90% purity. Anti-CD20 scFv-huIgG1Fc mAb with amino acid sequence of Rituximab (C2B8) scFv shown in SEQ ID NO: 158 and anti-CD20 Fab-huIgG1Fc mAb with amino acid sequences of Leul6 VH-CH1 and VL-CL shown in SEQ ID NO: 163 and SEQ ID NO: 164 were used as positive controls for the cell surface binding assay. CD20 positive cell lines—Raji, K562-CD20 and negative cell line—K562 were re-suspended in complete culture medium, cells concentration was diluted to 1×10⁶ cells/mL and the staining was performed in 2×10⁵ cells per well. The mAbs were serially diluted from maximal concentration of 2000 nM (3-fold reduction, 12 pts) and added according to the experimental plan and protocol. The mAbs and cells were co-incubated for 1 hour at 4° C. Then, the cells were washed with 2(X) μL of DPBS+0.5% FBS and spun at 300 g for 5 mins, 4° C. The cells were stained with the detection antibody—PE-conjugated mouse anti-human IgG1 Fc (BioLegend, Cat. #409304, 1:100) for 40 mins at 4° C. The cells were then washed again and re-suspended with 200 μL of DPBS+0.5% FBS for flow cytometric analysis on a NovoCyte Flow Cytometer (ACEA Biosciences). The FACS data was analyzed by Novoexpress software, and the MFI (median fluorescent intensity) was analyzed by GraphPad PRISM version 6.0.

[2] = target: T1, human CD20 (membrane spanning 4-domains …); experiment: flow cytometry, mAb titrated on K562-CD20 cells, PE anti-human IgG1 Fc detection
Text: as §1, with “The mAbs and cells were co-incubated for 1 hour at 4° C. Then, the cells were washed with 2(X) μL of DPBS+0.5% FBS and spun at 300 g for 5 mins, 4° C. The cells were stained with the detection antibody—PE-conjugated mouse anti-human IgG1 Fc (BioLegend, Cat. #409304, 1:100) for 40 mins at 4° C. The cells were then washed again and re-suspended with 200 μL of DPBS+0.5% FBS for flow cytometric analysis on a NovoCyte Flow Cytometer (ACEA Biosciences).” left out

EC50 [1] | EC50 [2] | Binder
11.1 nM | 6.24 nM | VHH-440-huIgG1Fc mAb (Fc fusion, not shown: human IgG1 Fc by the name) QVHLMESGGGSVQAGGSLRLSCQASAYIRVFYLMGWFRQAPGKEREEVARVTADGFTNHAASVKGRFTISKDNAKNTLYLQMDSMKSEDTAVYYCAAGRTWNSGFEYWGQGTQVTVSS
75.3 nM | 41.1 nM | Anti-CD20 scFv-huIgG1Fc mAb (Fc fusion, also called Rituximab (C2B8) scFv-huIgG1Fc; not shown: human IgG1 Fc by the name) QIVLSQSPAILSASPGEKVTMTCRASSSVSYIHWFQQKPGSSPKPWIYATSNLASGVPVRFSGSGSGTSYSLTISRVEAEDAATYYCQQWTSNPPTFGGGTKLEIKGGGGSGGGGSGGGGSQVQLQQPGAELVKPGASVKMSCKASGYTFTSYNMHWVKQTPGRGLEWIGAIYPGNGDTSYNQKFKGKATLTADKSSSTAYMQLSSLTSEDSAVYYCARSTYYGGDWYFNVWGAGTTVTVSA
13.5 nM |  | Anti-CD20 Fab-huIgG1Fc mAb (antibody, V domains shown, also called Leul6 (Leu16) Fab-huIgG1Fc; not shown: human IgG1 Fc by the name) VH: EVQLQQSGAELVKPGASVKMSCKASGYTFTSYNMHWVKQTPGQGLEWIGAIYPGNGDTSYNQKFKGKATLTADKSSSTAYMQLSSLTSEDSADYYCARSNYYGSSYWFFDVWGAGTTVTVSS VL: DIVLTQSPAILSASPGEKVTMTCRASSSVNYMDWYQKKPGSSPKPWIYATSNLASGVPARFSGSGSGTSYSLTISRVEAEDAATYYCQQWSFNPPTFGGGTKLEIKR

Source: patent US20230272104A1 (LEGEND BIOTECH IRELAND, published 2023)
